Consider 19 sequences from a protein production outcome set (Wang et al. 2014).

A short description of the data set: label from the status in PepcDB records.

In the case of “MKGKILDYSVQTNTAIIRTEDQKHYSFLGSAWREWIVPMPGMHVYFELDAQGEVTEVFIDVPEEDTPIAKPILTPVKAFITAPLMVDMQDKQHHTMLEKEAHYCMIDWVIKCFKNALDFKGRARRQEFWSFQFFYTVLGVGMLAFGHFLDLGHTLFIVSSIFMLLPALAVSVRRLHDINRSGWLLLINLVPIVGVLIVIFFFMTEEGDSRANAFGPPSK”, the protein production result is recorded as “failed”. The entry for “MKGLKALILVILVLGLVVGSVAAAPEKKVEQVRNVEKNYGLLTPGLFRKIQKLNPNEEISTVIVFENHREKEIAVRVLELMGAKVRYVYHIIPAIAADLKVRDLLVISGLTGGKAKLSGVRFIQEDYKVTVSAELEGLDESAAQVMATYVWNLGYDGSGITIGIIDTGIDASHPDLQGKVIGWVDFVNGRSYPYDDHGHGTHVASIAAGTGAASNGKYKGMAPGAKLAGIKVLGADGSGSISTIIKGVEWAVDNKDKYGIKVINLSLGSSQSSDGTDALSQAVNAAWDAGLVVVVAAGNSGPNKYTIGSPAAASKVITVGAVDKYDVITSFSSRGPTADGRLKPEVVAPGNWIIAARASGTSMGQPINDYYTAAPGTSMATPHVAGIAALLLQAHPSWTPDKVKTALIETADIVKPDEIADIAYGAGRVNAYKAINYDNYAKLVFTGYVANKGSQTHQFVISGASFVTATLYWDNANSDLDLYLYDPNGNQVDYSYTAYYGFEKVGYYNPTDGTWTIKVVSYSGSANYQVDVVSDGSLSQPGSSPSPQPEPTVDAKTFQGSVHYYYDRSDTFTMTVNSGATKITGDLVFDTSYHDLDLYLYDPNQKLVDRSESSNSYEHVEYLNPAPGTWYFLVYAYYTYGWAYYELTAKVYYG” is “failed”; for “MKGREMKIVEFMKDKMVYIVFTLIFSSIYAGVHHRSIFLSLKVTLPIALFMMLFQPMVFMDIKKAFTTRTRVKTKYLILLTFFYTLLFPVLTWIFLKFWLRMMPNTEPQLLAGMVLIGLAPLPSSSPAFTNLAGGRFQLTLVGVMWTFLLSIFVMPFYAKLILHTIIQVPIEMLLKSLILYIITPLIIGQLTKYIILHWKGTDALISLKKPLIGISLIGMYWMIVVVFGINAKVIVERPELILIGAITMNIYFLLRAAIAYFIGKALDFPFEQNISLVYSTGSNMTLATAMAIGTFGPLAAVGTALGGPFSDMLLMIFFVKLFTLIRKKYIHNERKSITGG” it is “failed”; for “MKGRSGDVNINTNAISTPARVLIYSTAAVLLTIGMKAISSILMPIFFSIFSYLIFAPLVRWLMRKRVPGKISVVLVILVFIFVFVGTTLLFANSLLQLSGRIPNYENQLTSILNSISIYLPEAGVSVESVLRDIAAFAFNVSGDIISGALNAGSTIALIVITTTFLLLDSAGAPVKMQKEGENQPVHISQYTELSRTVINYMLLRTETNLLGGIGTAILLLAGGIDFAVLWGLLFFLFGYIPYLGFYLAAIPPMLLGLFEYGLIGAVGVLVGITIINALVENVIFPSLAGKGLKLSPTLVFLSLFYWSFVLGAAGALIAVPLTIVVKIILESSEETRMIAKLMESSGTRDLDEKSTEENISE” it is “failed”. Regarding “MKGRWVKYLLMGTVVAMLAACSSKPTDRGQQYKDGKFTQPFSLVNQPDAVGAPINAGDFAEQINHIRNSSPRLYGNQSNVYNAVQEWLRAGGDTRNMRQFGIDAWQMEGADNYGNVQFTGYYTPVIQARHTRQGEFQYPIYRMPPKRGRLPSRAEIYAGALSDKYILAYSNSLMDNFIMDVQGSGYIDFGDGSPLNFFSYAGKNGHAYRSIGKVLIDRGEVKKEDMSMQAIRHWGETHSEAEVRELLEQNPSFVFFKPQSFAPVKGASAVPLVGRASVASDRSIIPPGTTLLAEVPLLDNNGKFNGQYELRLMVALDVGGAIKGQHFDIYQGIGPEAGHRAGWYNHYGRVWVLKTAPGAGNVFSG”, the protein production result was “not failed”. In the case of “MKGWKRNLYILVVCQFLVVSAMTMIIPFLPLYLQELGVTDPSEVSLWAGIIFAANFLTAFLFSPLWSRLADRYGRKMMILRSGFGMALIIGLTGFAQGPLSLLCLRLLNGVISGFIPASIGLVATNTPKEKAGYALGFLQAGAVSGGICGPLIGGIMAQAFGYRMIFFLTGLCIFIAALVVLLFVNEQFTPNPKEEKTNTWGEFKKITAIRPIFSLYVVVFLIQFAVMGVNPLISLFVEELVSGVNVALFAGLAISATGFANMLSSMQLGKLSDKAGAHHVLFFCLLGTVIFMIPQAFVQQLWQLIVLRFFVGLSLGGLLPAANALVRMHAPKGMESRTYGFSTSALYLGNMVGPTVGGAVVATVGIRGLFLISAFTLLLTVWIVKGKVMPASDKQFRYEQNERKIASS” it was “failed”. In the case of “MKHAKQIAEHATIQSFLNCYLRETGSGEWITEDKRIEDIFYHLFQRDTCSTYLCCRLSAQNITLYGEVIYKSPTDRHLFGEQFYYQMGDSNSVMKADYVTVITFLIKEMSINYGEGTNPAELMLRVIRSCQNIEEFTKERKEDTSALYGFHTSFIEAEQSLLFGHLTHPTPKSRQGILEWKSAMYSPELKGECQLHYFRAHKSIVNEKSLLLDSTTVILKEELRNDEMVSKEFISKYCNEDEYSLLPIHPLQAEWLLHQPYVQDWIEQGVLEYIGPTGKCYMATSSLRTLYHPDAKYMLKFSFPVKVTNSMRINKLKELESGLEGKAMLNTAIGEVLEKFPGFDFICDPAFITLNYGTQESGFEVIIRENPFYSEHADDATLIAGLVQDAIPGERTRLSNIIHRLADLESRSCEEVSLEWFRRYMNISLKPMVWMYLQYGVALEAHQQNSVVQLKDGYPVKYYFRDNQGFYFCNSMKEMLNNELAGIGERTGNLYDDYIVDERFRYYLIFNHMFGLINGFGTAGLIREEILLTELRTVLESFLPYNREPSTFLRELLEEDKLACKANLLTRFFDVDELSNPLEQAIYVQVQNPLVREVAVRS” it was “failed”; in that of “MKHAQKYRYFSLLMGLVLLLSACQIGATTKDDNQAATKEATVELNRTTTPTLFFHGYAGTKNSFGSLLHRLEKQGATTQELVLLVKPDGTVVKERGALSGKATNPSVQVLFEDNKNNEWNQTEWIKNTLLYLQKNYQVNKANIVGHSMGGVSGLRYLGTYGQDTSLPKIEKFVSIGAPFNDFIDTSQQQTIETELENGPTEKSSRYLDYQEMINVVPEKLPILLIGGQLSPTDLSDGTVPLSSALAVNALLRQRGTQVTSQIIKGENAQHSQLHENPEVDQLLIEFLWPSKK”, “failed”. For the sequence “MKHLNIYIMLLGFSIFTGATFNLAKYTVGYFSPSSSAAWRFGLAAAVMLIILIFTEGIKKSQLRKNAVSYIVLGIIGIFGFNALFFVGLKYTSPVNGALIMGLNPLLTAILARIILKDNMTKKQVLGIFFAFIGVLLVITQGSIETIKTLSISGGDLIIFTGNVCWALYGVLGRRFVKDGTPLSTTTYTMVIGAVSLIVVSLFTSKPVSLSNIPIGVWGAIAFMAFFTSVLGYLWWNQGIKEIGASKTSLFFNLVPVVTMIISFAVGTPIKVFQVIGAVLVILGVLTASGVIRIPKYNTKEQSAI”, the protein production entry is on record as “failed”.

Take “MKHLVICIALLTVGACCFAQQKKVASHKAASGNPVFQGWYADPEGIIYDDTYWIFPTWSDLYENQTFFDCFSSKDLVNWTKHASVLDTTAVKWAKKAMWAPSVIRKNGKYYIFFGANDVHEGEIGGIGVAVSDRPEGPYKDLLGKPLINEIVNGAQPIDQFVYNDNGHYYMYYGGWGHCNVVQLNDDFTGLVPFEDGTVYKEVTPENYVEGPFMFKKDGKYYFMWSEGGWGGPDYSVAYAISDSPFGPFKRVAKILQQDPSVATSAGHHSLLHAPGTDDYYIVYHRRPLNDNARDHRVTCIDKMTFDKDGFINPVKMTFEGVPAQKIKKSKKK”: the protein production entry is given as “failed”.

As for “MKHYEVEILDAKTREKLCFLDKVEPHATIAEIKNLFTKTHPQWYPARQSLRLDPKGKSLKDEDVLQKLPVGTTATLYFRDL”, the protein production entry is reported as “not failed”. The entry for “MKIAIIRKIPTRPEQISRPSHSARAGPETHCSMPCGFAASRKAGRIAVKETIKEIVMGMLVEGVWKDVWYDTKETKGHFKRSASQFRNWVTVDGAVGPSGEGGFEAEKDRYHLYVSFACPWAHRTLIFRKLKKLEDLISVSVVDPLMLENGWEFKPEGERTPGATQDHLFGSSTLWQVYTKADPTYSGRVTVPVLWDKKRGTIVSNESAEIIRMFNVAFNDLTGSDADYYPKALRAEIDALNDVIYDTVNNGVYKAGFATTQDAYQQNAVKVFETLDMLEDRLKDRRFLFGSEQTEADWRLFTTLVRFDPVYVGHFKCNIRRIHDYPHLTGYLRDLYQTPGVPDTVDMRHIKEHYYRSHRTINPTGIVPIGPELDLTMAHGREALS” is “failed”; for “MKIAILYREEREKEGEFLKEKISKEHEVIEFGEANAPGRVTADLIVVVGGDGTVLKAAKKAADGTPMVGFKAGRLGFLTSYTLDEIDRFLEDLRNWNFREETRWFIQIESELGNHLALNDVTLERDLSGKMVEIEVEVEHHSSMWFFADGVVISTPTGSTAYSLSIGGPIIFPECEVLEISPIAPQFFLTRSVVIPSNFKVVVESQRDINMLVDGVLTGKTKRIEVKKSRRYVRILRPPEYDYVTVIRDKLGYGRRIE” it is “not failed”. In the case of “MKIAIVGSGNGAVTAAVDMVDKGHDVRLYCRNESISKFDVALEKGGFDFYNEGEEKFIEFTDISDDMEYVLDGADIVQVIIPSSFIEYYAKVMSKFVTNDHLIFFNIAASMGSIRFMNVLEDRHIDVHPHFAEANTLTYGTRVDFNNAKVDLSLNVRRVFFSTFDRSELNESYEKVSKIYDYLVKEESLLKTNL” it was “failed”; in that of “MKIALINENSQASKNHIIYDSLKEATDKKGYQLFNYGMRGEEGESQLTYVQNGLMAAILLNTKAVDFVVTGCGTGVGAMLALNSFPGVVCGLAVDPTDAYLYSQINGGNALSIPYAKGFGWGAELTLKLMFERLFAEEMGGGYPRERVIPEQRNARILNEVKQITHNDLMTILKIIDQDFLKDTISGKYFQEYFFENCQDDEVAAYLKEVLA”, “failed”. On to “MKIATTSSAFDLLPKDQKYKTKRVSYNDFSDLSFLPVVNPKIKRQKKTLEEEVDSTSKAKSSRTSLTKSVTTTTKLTKPEETITASSKECLQETKTNKKPDLRDLIAKAQEKIQNKREINHRREYITRQRIAARLALNQMVATVSFDDHLNYHREMEQRGYTFIQDQVDNLNMFSLWSRSDYNGITNSVLETSNTTMRSDEDSSRKKQQIIKKKSNTFPTDVKEH”, for which the protein production result was “failed”. The entry for “MKIATYNVRVDTEYDQDWQWSFRKEAVCQLINFHDWSLCCIQEVRPNQVRDLKAYTTFTCLSAEREGDGQGEGLAILYNEQKVQAIDTGYFWLSETPQQPSIHPEAGCPRIALWGLFKETTQNTPFLVINVHLDHISAHARLAGMTVILEELHDKIAQYPTLLMGDFNAESGEEVHQLVQKKFQDSKNLATHYGPRGTFQNFTYTKPWAELEEIDYIYVKGWQVQQTASLTDSIDGRFPSDHFPLEAEVCIEE” is “failed”; for “MKIAVVGGTGLVGQGILLELSKDTTLELHSISRNGKRPNSIAGVNYHSFDLAHDTSWHSLLQTSDWVIDCVGILLPNKSKNQTYENSSIEPAKLIIDSIANFDNKFLFISANSAPFFLNNYLHAKRTVENYASRKLGNRAISVYPGLVYSKFRRSNYYPAVILDFLLKFKLFSFLRKFRPISRERFAKEIHYIIEGKNSSLTYRI” it is “failed”; for “MKIEHVALWTTNLEQMKQFYVTYFGATANDLYENKTKGFNSYFLSFEDGARLEIMSRTDVTGKTTGENLGWAHIAISTGTKEAVDELTEKLRQDGFAIAGEPRMTGDGYYESVVLDPEGNRIEITW” it is “not failed”.
